# Source: patent US20260144882A1, “ANTI-NECTIN-4 ANTIBODY DRUG CONJUGATE AND USE THEREOF” (Bio-Thera Solutions, Ltd., priority 2022, published 2026)
# B1: 1G8-1G3: VH SEQ ID NO: 98 (antibody, V domains shown)
# VH: EVQLVESGGGLVQPGGSLRLSCAASGFNFGTYAMSWVRQAPGKGLEWVSRISGISAGTNYADSVKGRFTISRDNSKNTLYLQMNSLRAEDTAVYYCARQTEDRSYGYDLDYWGQGTLVTVSS
# B2: 1G8-2B3: VH SEQ ID NO: 109 (antibody, V domains shown)
# VH: EVQLVESGGGLVQPGGSLRLSCAASGYNFTTSAMSWVRQAPGKGLEWVSRIYQDSSTTDYADSVKGRFTISRDNSKNTLYLQMNSLRAEDTAVYYCARQTEDRSYGYDLDYWGQGTLVTVSS
# B3: 1G8-1E10: VH SEQ ID NO: 90 (antibody, V domains shown)
# VH: EVQLVESGGGLVQPGGSLRLSCAASGDSFSTYAMSWVRQAPGKGLEWVSRISGSGDGKDYADSVKGRFTISRDNSKNTLYLQMNSLRAEDTAVYYCARQTEDRSYGYDLDYWGQGTLVTVSS
# Target: T1, hNectin-4-His (human Nectin-4 extracellular antigen) (Homo sapiens, UniProt Q96NY8)
# T1 construct: made in house
# T1 sequence (Q96NY8 with tags, fused parts or gaps): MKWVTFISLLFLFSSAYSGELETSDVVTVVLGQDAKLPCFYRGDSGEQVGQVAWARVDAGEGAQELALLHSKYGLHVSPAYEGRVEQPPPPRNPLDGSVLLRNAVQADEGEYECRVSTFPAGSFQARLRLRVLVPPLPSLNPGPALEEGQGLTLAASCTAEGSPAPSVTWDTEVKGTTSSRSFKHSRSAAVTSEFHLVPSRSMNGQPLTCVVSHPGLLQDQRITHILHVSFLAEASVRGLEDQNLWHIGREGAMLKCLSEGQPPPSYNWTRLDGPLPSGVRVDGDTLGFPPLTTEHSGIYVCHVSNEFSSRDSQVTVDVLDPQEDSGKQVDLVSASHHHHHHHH
# Test: SPR (BIAcore) affinity assay
# Assay type: binding
# Details: Table 13
# Procedure: In this study, the affinity of the antibodies for the human Nectin-4 extracellular antigen was detected by surface plasmon resonance (SPR) technique (BIAcore: GE Healthcare, T200).
# Capture was performed using a Protein A chip (Cat #29127556, GE Healthcare), and 5 µg/mL antibody dilutions (in HBS-EP+(10×): GE Healthcare, Cat #BR-1006-69, with a working concentration of 1×) were directed through the experimental flow channels (Fc2 and Fc4) at a flow rate of 10 μL/min for 10 s; then, the flow rate was adjusted to 30 μL/min, the hNectin-4-His dilutions at different concentrations (0 nM, 1.23 nM, 3.7 nM, 11.1 nM, 33.3 nM, and 100 nM) were sequentially added, and simultaneously directed through the surfaces of the experimental flow channels (Fc2 and Fc4) and reference flow channels (Fc1 and Fc3) with an association time of 120 s and a dissociation time of 180 s, and finally, the chip was regenerated in Glycine 1.5.
Molecule,ka,kd
B1,471000 M⁻¹ s⁻¹,0.00141 s⁻¹
B2,742000 M⁻¹ s⁻¹,0.00147 s⁻¹
B3,665000 M⁻¹ s⁻¹,0.00087 s⁻¹
